Data on six molecules can be found in patent publication US20160002357A1 (Pfizer, published 2016).

The target in test [1] is human P-cadherin expressed on the cell surface (human, UniProt P22223 108-829). Put plainly: cell-based or functional assay.
Test [2] addresses T1, cynomolgus monkey P-cadherin ECD (cynomolgus monkey).
T1 construct: extracellular domain; also called cyno P-cadherin ECD; Cyno P-cadherin
Put plainly: SPR. In general terms: SPR reads the build-up and loss of mass on a sensor chip optically.

Chain of human P-cadherin expressed on the cell surface (P22223 108-829): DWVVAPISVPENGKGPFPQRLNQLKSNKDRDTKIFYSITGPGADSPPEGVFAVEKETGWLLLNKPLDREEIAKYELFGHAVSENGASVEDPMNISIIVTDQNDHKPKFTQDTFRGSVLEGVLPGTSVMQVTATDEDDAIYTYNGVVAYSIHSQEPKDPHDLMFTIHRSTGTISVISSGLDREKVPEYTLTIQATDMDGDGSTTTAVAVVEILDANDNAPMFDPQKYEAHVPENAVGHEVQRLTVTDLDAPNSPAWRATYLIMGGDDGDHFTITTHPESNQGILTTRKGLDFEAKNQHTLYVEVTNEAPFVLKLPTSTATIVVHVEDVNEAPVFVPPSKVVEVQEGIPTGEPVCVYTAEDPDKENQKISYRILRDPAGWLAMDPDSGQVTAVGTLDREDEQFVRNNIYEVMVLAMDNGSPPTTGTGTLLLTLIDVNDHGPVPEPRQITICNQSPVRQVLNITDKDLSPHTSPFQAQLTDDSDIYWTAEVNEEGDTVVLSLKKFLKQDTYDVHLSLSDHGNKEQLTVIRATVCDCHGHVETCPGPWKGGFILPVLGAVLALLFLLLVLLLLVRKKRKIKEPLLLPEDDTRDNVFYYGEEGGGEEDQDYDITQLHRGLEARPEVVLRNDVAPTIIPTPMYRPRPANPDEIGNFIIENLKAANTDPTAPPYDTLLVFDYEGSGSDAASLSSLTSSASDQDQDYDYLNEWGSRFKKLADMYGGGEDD

B1: LP-DART #5 (bispecific antibody)
chain 1: QAVVTQEPSLTVSPGGTVTLTCRSSTGAVTTSNYANWVQQKPGQAPRGLIGGTNKRAPWTPARFSGSLLGGKAALTITGAQAEDEADYYCALWYSNLWVFGGGTKLTVLGGGGSGGGGEVQLVQSGAEVKKPGASVKVSCKASGYTFTSYGISWVRQAPGQGLEWMGWISAYNGNTNYAQKLQGRVTMTTDTSTSTAYMELRSLRSDDTAVYYCATIDTASAFDIWGQGTMVTVSSGCPPCPAPEAAGAPSVFLFPPKPKDTLMISRTPEVTCVVVDVSHEDPEVKFNWYVDGVEVHNAKTKPREEQYNSTYRVVSVLTVLHQDWLNGKEYKCKVSNKALPAPIEKTISKAKGQPREPQVYTLPPCREEMTKNQVSLSCAVKGFYPSDIAVEWESNGQPENNYKTTPPVLDSDGSFFLVSKLTVDKSRWQQGNVFSCSVMHEALHNHYTQKSLSLSPG
chain 2: QSVLTQPPSVSAAPGQKVTISCSGSSSNIGNNYVSWYQQLPGTAPKLLIYDNNKRPSGIPDRFSGSKSGTSATLGITGLQTGDEADYYCGTWDSSLSAVVFGGGTKLTVLGGGSGGGGEVQLVESGGGLVQPGGSLRLSCAASGFTFNTYAMNWVRQAPGKGLEWVARIRSKYNNYATYYADSVKDRFTISRDDSKNSLYLQMNSLKTEDTAVYYCVRHGNFGNSYVSWFAYWGQGTLVTVSSGCPPCPAPEAAGAPSVFLFPPKPKDTLMISRTPEVTCVVVDVSHEDPEVKFNWYVDGVEVHNAKTKPREEQYNSTYRVVSVLTVLHQDWLNGKEYKCKVSNKALPAPIEKTISKAKGQPREPQVCTLPPSREEMTKNQVSLWCLVKGFYPSDIAVEWESNGQPENNYKTTPPVLDSDGSFFLYSKLTVDKSRWQQGNVFSCSVMHEALHNHYTQKSLSLSPG
notes: also called P-cadherin LP-DART construct #5 (P-CAD 35, CD3-2)
As for B1, in test [1], the “T cell Cytotoxicity” value is 0.74 nM. The molecule further gave a Kd in test [2] of 62.1 nM.

B2: LP-DART #1 (bispecific antibody)
chain 1: QAVVTQEPSLTVSPGGTVTLTCRSSTGAVTTSNYANWVQQKPGQAPRGLIGGTNKRAPWTPARFSGSLLGGKAALTITGAQAEDEADYYCALWYSNLWVFGGGTKLTVLGGGGSGGGGEVQLVQSGAEVKKPGASVKVSCKASGYTFTSYGISWVRQAPGQGLEWMGWISAYNGNTNYAQKLQGRVTMTTDTSTSTAYMELRSLRSDDTAVYYCATIDTASAFDIWGQGTMVTVSSGCPPCPAPEAAGAPSVFLFPPKPKDTLMISRTPEVTCVVVDVSHEDPEVKFNWYVDGVEVHNAKTKPREEQYNSTYRVVSVLTVLHQDWLNGKEYKCKVSNKALPAPIEKTISKAKGQPREPQVCTLPPSREEMTKNQVSLWCLVKGFYPSDIAVEWESNGQPENNYKTTPPVLDSDGSFFLYSKLTVDKSRWQQGNVFSCSVMHEALHNHYTQKSLSLSPG
chain 2: QSVLTQPPSVSAAPGQKVTISCSGSSSNIGNNYVSWYQQLPGTAPKLLIYDNNKRPSGIPDRFSGSKSGTSATLGITGLQTGDEADYYCGTWDSSLSAVVFGGGTKLTVLGGGSGGGGEVQLVESGGGLVQPGGSLRLSCAASGFTFNTYAMNWVRQAPGKGLEWVARIRSKYNNYATYYADSVKDRFTISRDDSKNSLYLQMNSLKTEDTAVYYCVRHGNFGNSYVSWFAYWGQGTLVTVSSGCPPCPAPEAAGAPSVFLFPPKPKDTLMISRTPEVTCVVVDVSHEDPEVKFNWYVDGVEVHNAKTKPREEQYNSTYRVVSVLTVLHQDWLNGKEYKCKVSNKALPAPIEKTISKAKGQPREPQVYTLPPCREEMTKNQVSLSCAVKGFYPSDIAVEWESNGQPENNYKTTPPVLDSDGSFFLVSKLTVDKSRWQQGNVFSCSVMHEALHNHYTQKSLSLSPG
notes: also called P-cadherin LP-DART construct #1 (P-CAD 35, CD3-2)
Regarding B2, the “T cell Cytotoxicity” value in test [1] came out at 0.79 nM. Also, the affinity in test [2], expressed as Kd, was 108 nM.

B3: LP-DART #4 (bispecific antibody)
chain 1: QAVVTQEPSLTVSPGGTVTLTCRSSTGAVTTSNYANWVQQKPGQAPRGLIGGTNKRAPWTPARFSGSLLGGKAALTITGAQAEDEADYYCALWYSNLWVFGGGTKLTVLGGGGSGGGGEVQLVQSGAEVKKPGASVKVSCKASGYTFTSYGISWVRQAPGQGLEWMGWISAYNGNTNYAQKLQGRVTMTTDTSTSTAYMELRSLRSDDTAVYYCATIDTASAFDIWGQGTMVTVSSGGTGGGEPKSSDKTHTCPPCPAPEAAGAPSVFLFPPKPKDTLMISRTPEVTCVVVDVSHEDPEVKFNWYVDGVEVHNAKTKPREEQYNSTYRVVSVLTVLHQDWLNGKEYKCKVSNKALPAPIEKTISKAKGQPREPQVCTLPPSREEMTKNQVSLWCLVKGFYPSDIAVEWESNGQPENNYKTTPPVLDSDGSFFLYSKLTVDKSRWQQGNVFSCSVMHEALHNHYTQKSLSLSPG
chain 2: QSVLTQPPSVSAAPGQKVTISCSGSSSNIGNNYVSWYQQLPGTAPKLLIYDNNKRPSGIPDRFSGSKSGTSATLGITGLQTGDEADYYCGTWDSSLSAVVFGGGTKLTVLGGGSGGGGEVQLVESGGGLVQPGGSLRLSCAASGFTFNTYAMNWVRQAPGKGLEWVARIRSKYNNYATYYADSVKDRFTISRDDSKNSLYLQMNSLKTEDTAVYYCVRHGNFGNSYVSWFAYWGQGTLVTVSSGGTGGGEPKSSDKTHTCPPCPAPEAAGAPSVFLFPPKPKDTLMISRTPEVTCVVVDVSHEDPEVKFNWYVDGVEVHNAKTKPREEQYNSTYRVVSVLTVLHQDWLNGKEYKCKVSNKALPAPIEKTISKAKGQPREPQVYTLPPCREEMTKNQVSLSCAVKGFYPSDIAVEWESNGQPENNYKTTPPVLDSDGSFFLVSKLTVDKSRWQQGNVFSCSVMHEALHNHYTQKSLSLSPG
notes: also called P-cadherin LP-DART construct #4 (P-CAD 35, CD3-2)
For the molecule B3, the “T cell Cytotoxicity” value in test [1] stood at 2.45 nM. The Kd in test [2] was found to be 128 nM.

B4: LP-DART #8 (bispecific antibody)
chain 1: QAVVTQEPSLTVSPGGTVTLTCRSSTGAVTTSNYANWVQQKPGQAPRGLIGGTNKRAPWTPARFSGSLLGGKAALTITGAQAEDEADYYCALWYSNLWVFGGGTKLTVLGGGGSGGGGEVQLVQSGAEVKKPGASVKVSCKASGYTFTSYGISWVRQAPGQGLEWMGWISAYNGNTNYAQKLQGRVTMTTDTSTSTAYMELRSLRSDDTAVYYCATIDTASAFDIWGQGTMVTVSSGGTGGGEPKSSDKTHTCPPCPAPEAAGAPSVFLFPPKPKDTLMISRTPEVTCVVVDVSHEDPEVKFNWYVDGVEVHNAKTKPREEQYNSTYRVVSVLTVLHQDWLNGKEYKCKVSNKALPAPIEKTISKAKGQPREPQVYTLPPCREEMTKNQVSLSCAVKGFYPSDIAVEWESNGQPENNYKTTPPVLDSDGSFFLVSKLTVDKSRWQQGNVFSCSVMHEALHNHYTQKSLSLSPG
chain 2: QSVLTQPPSVSAAPGQKVTISCSGSSSNIGNNYVSWYQQLPGTAPKLLIYDNNKRPSGIPDRFSGSKSGTSATLGITGLQTGDEADYYCGTWDSSLSAVVFGGGTKLTVLGGGSGGGGEVQLVESGGGLVQPGGSLRLSCAASGFTFNTYAMNWVRQAPGKGLEWVARIRSKYNNYATYYADSVKDRFTISRDDSKNSLYLQMNSLKTEDTAVYYCVRHGNFGNSYVSWFAYWGQGTLVTVSSGGTGGGEPKSSDKTHTCPPCPAPEAAGAPSVFLFPPKPKDTLMISRTPEVTCVVVDVSHEDPEVKFNWYVDGVEVHNAKTKPREEQYNSTYRVVSVLTVLHQDWLNGKEYKCKVSNKALPAPIEKTISKAKGQPREPQVCTLPPSREEMTKNQVSLWCLVKGFYPSDIAVEWESNGQPENNYKTTPPVLDSDGSFFLYSKLTVDKSRWQQGNVFSCSVMHEALHNHYTQKSLSLSPG
notes: also called P-cadherin LP-DART construct #8 (P-CAD 35, CD3-2)
For B4, the “T cell Cytotoxicity” value in test [1] stood at 2.27 nM. The molecule also had a Kd in test [2] of 104 nM.

B5: LP-DART #6 (bispecific antibody)
chain 1: QAVVTQEPSLTVSPGGTVTLTCRSSTGAVTTSNYANWVQQKPGQAPRGLIGGTNKRAPWTPARFSGSLLGGKAALTITGAQAEDEADYYCALWYSNLWVFGGGTKLTVLGGGGSGGGGEVQLVQSGAEVKKPGASVKVSCKASGYTFTSYGISWVRQAPGQGLEWMGWISAYNGNTNYAQKLQGRVTMTTDTSTSTAYMELRSLRSDDTAVYYCATIDTASAFDIWGQGTMVTVSSGGTGGCPPCPAPEAAGAPSVFLFPPKPKDTLMISRTPEVTCVVVDVSHEDPEVKFNWYVDGVEVHNAKTKPREEQYNSTYRVVSVLTVLHQDWLNGKEYKCKVSNKALPAPIEKTISKAKGQPREPQVYTLPPCREEMTKNQVSLSCAVKGFYPSDIAVEWESNGQPENNYKTTPPVLDSDGSFFLVSKLTVDKSRWQQGNVFSCSVMHEALHNHYTQKSLSLSPG
chain 2: QSVLTQPPSVSAAPGQKVTISCSGSSSNIGNNYVSWYQQLPGTAPKLLIYDNNKRPSGIPDRFSGSKSGTSATLGITGLQTGDEADYYCGTWDSSLSAVVFGGGTKLTVLGGGSGGGGEVQLVESGGGLVQPGGSLRLSCAASGFTFNTYAMNWVRQAPGKGLEWVARIRSKYNNYATYYADSVKDRFTISRDDSKNSLYLQMNSLKTEDTAVYYCVRHGNFGNSYVSWFAYWGQGTLVTVSSGGTGGCPPCPAPEAAGAPSVFLFPPKPKDTLMISRTPEVTCVVVDVSHEDPEVKFNWYVDGVEVHNAKTKPREEQYNSTYRVVSVLTVLHQDWLNGKEYKCKVSNKALPAPIEKTISKAKGQPREPQVCTLPPSREEMTKNQVSLWCLVKGFYPSDIAVEWESNGQPENNYKTTPPVLDSDGSFFLYSKLTVDKSRWQQGNVFSCSVMHEALHNHYTQKSLSLSPG
notes: also called P-cadherin LP-DART construct #6 (P-CAD 35, CD3-2)
For B5, the “T cell Cytotoxicity” value in test [1] amounted to 1.29 nM. Moreover, in test [2], the Kd was determined as 86.6 nM.

B6: LP-DART #7 (bispecific antibody)
chain 1: QAVVTQEPSLTVSPGGTVTLTCRSSTGAVTTSNYANWVQQKPGQAPRGLIGGTNKRAPWTPARFSGSLLGGKAALTITGAQAEDEADYYCALWYSNLWVFGGGTKLTVLGGGGSGGGGEVQLVQSGAEVKKPGASVKVSCKASGYTFTSYGISWVRQAPGQGLEWMGWISAYNGNTNYAQKLQGRVTMTTDTSTSTAYMELRSLRSDDTAVYYCATIDTASAFDIWGQGTMVTVSSGEPKSSDKTHTCPPCPAPEAAGAPSVFLFPPKPKDTLMISRTPEVTCVVVDVSHEDPEVKFNWYVDGVEVHNAKTKPREEQYNSTYRVVSVLTVLHQDWLNGKEYKCKVSNKALPAPIEKTISKAKGQPREPQVYTLPPCREEMTKNQVSLSCAVKGFYPSDIAVEWESNGQPENNYKTTPPVLDSDGSFFLVSKLTVDKSRWQQGNVFSCSVMHEALHNHYTQKSLSLSPG
chain 2: QSVLTQPPSVSAAPGQKVTISCSGSSSNIGNNYVSWYQQLPGTAPKLLIYDNNKRPSGIPDRFSGSKSGTSATLGITGLQTGDEADYYCGTWDSSLSAVVFGGGTKLTVLGGGSGGGGEVQLVESGGGLVQPGGSLRLSCAASGFTFNTYAMNWVRQAPGKGLEWVARIRSKYNNYATYYADSVKDRFTISRDDSKNSLYLQMNSLKTEDTAVYYCVRHGNFGNSYVSWFAYWGQGTLVTVSSGEPKSSDKTHTCPPCPAPEAAGAPSVFLFPPKPKDTLMISRTPEVTCVVVDVSHEDPEVKFNWYVDGVEVHNAKTKPREEQYNSTYRVVSVLTVLHQDWLNGKEYKCKVSNKALPAPIEKTISKAKGQPREPQVCTLPPSREEMTKNQVSLWCLVKGFYPSDIAVEWESNGQPENNYKTTPPVLDSDGSFFLYSKLTVDKSRWQQGNVFSCSVMHEALHNHYTQKSLSLSPG
notes: also called P-cadherin LP-DART construct #7 (P-CAD 35, CD3-2)
For the molecule B6, the “T cell Cytotoxicity” value in test [1] amounted to 2.85 nM. Also, binding in test [2] was put at a Kd of 96.6 nM.

The term Kd denotes the free concentration of one partner at which half of the binding sites on the other are occupied at equilibrium, for simple one-to-one binding.
